{
  "source": "paper PMC6379669",
  "about": "(Nucleic Acids Research, 2018)",
  "biological_target": "full-length human RBBP4 (residues 1–425), recombinant (human, UniProt Q09028 1-425)",
  "sequence (Q09028 whole entry, the tested form may be a part)": "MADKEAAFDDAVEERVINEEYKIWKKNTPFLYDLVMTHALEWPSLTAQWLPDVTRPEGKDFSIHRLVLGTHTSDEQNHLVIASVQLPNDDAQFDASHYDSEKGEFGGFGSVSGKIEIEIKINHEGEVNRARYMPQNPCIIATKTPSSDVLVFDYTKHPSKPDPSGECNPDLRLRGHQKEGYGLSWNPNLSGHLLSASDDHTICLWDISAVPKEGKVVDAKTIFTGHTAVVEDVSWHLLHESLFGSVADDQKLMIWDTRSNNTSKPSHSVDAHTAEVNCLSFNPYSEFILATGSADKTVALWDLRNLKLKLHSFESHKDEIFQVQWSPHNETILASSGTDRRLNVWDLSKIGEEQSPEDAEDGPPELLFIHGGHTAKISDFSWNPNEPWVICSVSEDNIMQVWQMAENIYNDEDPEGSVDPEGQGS",
  "experiment": "ITC",
  "data": [
    {"binder": "MRSKARARKLAK", "note": "[human PRDM16 peptide (residues 1–12)]", "values": [
      {"measurement": "Kd", "result": 3.15, "unit": "µM"},
      {"measurement": "stoichiometry N", "result": 1}
    ]},
    {"binder": "MRSKGRARKLAT", "note": "[human PRDM3 peptide (residues 1–12)]", "values": [
      {"measurement": "Kd", "result": 2.96, "unit": "µM"},
      {"measurement": "stoichiometry N", "result": 1}
    ]}
  ]
}
